Like-named read-outs stand apart in the source and are kept apart here.
Legend:
[1] = cited from earlier work
[2] = Biodistribution in AR42J tumour-bearing nude mice; conditions: mouse, in vivo
Procedure: (§1) Tumour cells were subcutaneously injected into the left forelimb of each nude mouse. Biodistribution and imaging studies were conducted when the tumour volume reached at least 1.0 × 1.0 × 1.0 cm^3.

[3] = test system: AR42J tumour-bearing mice; assay: Micro-PET/CT imaging of AR42J tumour-bearing nude mice; conditions: mouse, in vivo
Procedure: as §1
(§2) Six (3 female and 3 male) mice with AR42J tumour xenografts (15–20 g) were used in the imaging study. All tumour-bearing mice were anaesthetized by intranasal inhalation of isoflurane. […] Images were acquired and reconstructed using micro-PET/CT at 30 min and 2 h after intravenous injection.

[4] = as above; conditions: both sexes, nude, mouse, in vivo, iv, 2.96 MBq, total radioactivity
Procedure: as §1, §2

[5] = Lipid-water partition (log Po/w), octanol water system; type: physicochemical
Procedure: The lipid-water partition (logP) of ^68Ga-labelled complexes was determined in the octanol water system by following the procedure mentioned below. In brief, 490 μL of ultrapure water was added to each of three centrifuge tubes containing 0.5 mL of saturated n-octanol and then combined with 10 μL (1.85 MBq/0.05 mCi) of freshly prepared radiolabelled complexes by ultrasonication (3 min). The centrifuge tube was allowed to stand for approximately 1 min for the liquid to become stratified. The upper and lower liquids were defined as groups A (A1, A2, A3) and B (B1, B2, B3), accounting for the organic and aqueous phases, respectively. Then, 0.1 mL was retrieved from each of the 6 sections. The radioactivity (CPM) of both phases was determined using a gamma counter, and the lipid-water partition coefficient was calculated as follows: logP = log (A-background)/(B-background). The average of three tubes was recorded as the logP.

SSTR2 = test system: SSTR2; design: method as in PMID 28864614; conditions: read-out: half inhibitory concentration (IC50) on SSTR2; cited from earlier work
healthy volunteers = assay: clinical; conditions: human, in vivo
Procedure: (§3) Twenty-two healthy volunteers gave informed consent and agreed to participate in the study. […] Each patient was injected with an average activity of 1.9 MBq/kg. The timing of image acquisition ranged from 30 to 45 min after injection (3 min/bed position). The PET image was attenuated and then reconstructed using the iterative reconstruction algorithm implemented.

clinical = conditions: human, in vivo, total radioactivity
Procedure: as §3

[6] = type: in vitro ADME; conditions: human
Procedure: In vitro serum binding studies for both ^68Ga-labelled NOTA-TATE and DOTA-TATE were carried out by following a generalized procedure summarized below. One millilitre of fresh anticoagulated (heparinized) human plasma was prepared. Freshly labelled compound (3.7 MBq, 0.1 mCi) was added to three centrifuge tubes, each containing 0.1 mL of human plasma. After incubation at 37 °C for 2 h, 1 mL of ice-cold methanol was added to each tube. The mixtures were separated by centrifugation (5 min, 3000 rpm) to collect the supernatant, which was repeated three times. A gamma counter was then used to measure the radioactivity of the supernatant (A) and the precipitate (B) in counts per minute (CPM); the plasma-protein binding rate was calculated as PPB = B/(A + B)100%, and the average of three tubes was recorded.

Q: Which “log stability constant of the ^68Ga complex” value ([1]; DOTA ^68Ga complex, pseudo-octahedral geometry) does the source give for `O=C(O)CN1CCN(CC(=O)O)CCN(CC(=O)O)CCN(CC(=O)O)CC1` [DOTA, 1,4,7,10-tetraazacyclododecane-1,4,7,10-tetraacetic acid] here?
A: 21.33

Q: Which “log stability constant of the ^68Ga complex” value ([1]; NOTA ^68Ga complex, octahedral) does the source give for `O=C(O)CN1CCN(CC(=O)O)CCN(CC(=O)O)CC1` [NOTA, 1,4,7-triazacyclononane-1,4,7-triacetic acid] here?
A: 30.98

Q: Which tissue uptake at 0.25 h ([2]; %ID/g Blood) does the source give for `C[C@@H](O)[C@H](NC(=O)[C@@H]1CSSC[C@H](NC(=O)[C@@H](Cc2ccccc2)NC(=O)CN2CCN(CC(=O)O)CCN(CC(=O)O)CCN(CC(=O)O)CC2)C(=O)N[C@@H](Cc2ccc(O)cc2)C(=O)N[C@H](Cc2c[nH]c3ccccc23)C(=O)N[C@@H](CCCCN)C(=O)N[C@@H]([C@@H](C)O)C(=O)N1)C(=O)O` [^68Ga-DOTA-TATE, metal not drawn] here?
A: 3.03 ± 1.96 %ID/g

Q: What about the tissue uptake at 1 h ([2]; %ID/g Blood) of the same compound?
A: 0.35 ± 0.2 %ID/g

Q: What about the tissue uptake at 2 h ([2]; %ID/g Blood) of the same compound?
A: 0.05 ± 0.02 %ID/g

Q: And the tissue uptake at 0.25 h ([2]; %ID/g Gallbladder)?
A: 1.47 ± 0.62 %ID/g

Q: And the tissue uptake at 0.25 h ([2]; %ID/g Intestines)?
A: 1.56 ± 1.47 %ID/g

Q: And the tissue uptake at 0.5 h ([2]; %ID/g Intestines)?
A: 1.58 ± 1.77 %ID/g

Q: What about the tissue uptake at 2 h ([2]; %ID/g Intestines) of the same compound?
A: 0.23 ± 0.15 %ID/g

Q: And the tissue uptake at 0.25 h ([2]; %ID/g Kidney)?
A: 10.3 ± 8.89 %ID/g

Q: And the tissue uptake at 0.5 h ([2]; %ID/g Kidney)?
A: 8.12 ± 2.71 %ID/g

Q: And the tissue uptake at 1 h ([2]; %ID/g Kidney)?
A: 2.82 ± 2.54 %ID/g

Q: What about the tissue uptake at 2 h ([2]; %ID/g Kidney) of the same compound?
A: 1.49 ± 0.57 %ID/g

Q: And the tissue uptake at 0.25 h ([2]; %ID/g Liver)?
A: 1.27 ± 0.77 %ID/g

Q: And the tissue uptake at 0.5 h ([2]; %ID/g Liver)?
A: 0.61 ± 0.35 %ID/g

Q: And the tissue uptake at 1 h ([2]; %ID/g Liver)?
A: 0.34 ± 0.25 %ID/g

Q: And the tissue uptake at 2 h ([2]; %ID/g Liver)?
A: 0.08 ± 0.07 %ID/g

Q: What about the tissue uptake at 0.5 h ([2]; %ID/g Lungs) of the same compound?
A: 2.86 ± 1.47 %ID/g

Q: What about the tissue uptake at 1 h ([2]; %ID/g Lungs) of the same compound?
A: 4.62 ± 3.42 %ID/g

Q: What about the tissue uptake at 2 h ([2]; %ID/g Lungs) of the same compound?
A: 0.98 ± 0.22 %ID/g

Q: What about the tissue uptake at 0.25 h ([2]; %ID/g Muscle) of the same compound?
A: 1.18 ± 1.26 %ID/g

Q: What about the tissue uptake at 2 h ([2]; %ID/g Muscle) of the same compound?
A: 0.04 ± 0.01 %ID/g

Q: And the tissue uptake at 0.25 h ([2]; %ID/g Skeleton)?
A: 1.94 ± 0.81 %ID/g

Q: And the tissue uptake at 0.5 h ([2]; %ID/g Skeleton)?
A: 1.1 ± 0.63 %ID/g

Q: What about the tissue uptake at 1 h ([2]; %ID/g Skeleton) of the same compound?
A: 0.8 ± 0.73 %ID/g

Q: What about the tissue uptake at 2 h ([2]; %ID/g Skeleton) of the same compound?
A: 0.17 ± 0.06 %ID/g

Q: What about the tissue uptake at 0.25 h ([2]; %ID/g Spleen) of the same compound?
A: 3.84 ± 4.03 %ID/g

Q: What about the tissue uptake at 0.5 h ([2]; %ID/g Spleen) of the same compound?
A: 1.48 ± 0.84 %ID/g

Q: What about the tissue uptake at 1 h ([2]; %ID/g Spleen) of the same compound?
A: 1.92 ± 1.75 %ID/g

Q: What about the tissue uptake at 2 h ([2]; %ID/g Spleen) of the same compound?
A: 0.21 ± 0.19 %ID/g

Q: And the tissue uptake at 0.25 h ([2]; %ID/g Stomach)?
A: 4.24 ± 2.66 %ID/g

Q: And the tissue uptake at 0.5 h ([2]; %ID/g Stomach)?
A: 0.98 ± 0.49 %ID/g

Q: What about the tissue uptake at 1 h ([2]; %ID/g Stomach) of the same compound?
A: 4.26 ± 2.58 %ID/g

Q: And the tissue uptake at 0.5 h ([2]; %ID/g Tumour)?
A: 3.62 ± 1.94 %ID/g

Q: What about the tissue uptake at 1 h ([2]; %ID/g Tumour) of the same compound?
A: 3.14 ± 2.07 %ID/g

Q: And the tissue uptake at 2 h ([2]; %ID/g Tumour)?
A: 2.3 ± 1.34 %ID/g

Q: And the “gallbladder radioactivity on micro-PET/CT” value [3]?
A: minimal gallbladder activity

Q: And the SUV at 0.5 h [4]?
A: 2.87 SUV

Q: And the SUV at 2 h [4]?
A: 1.83 SUV

Q: What about the “log Po/w (partition coefficient)” value [5] of the same compound?
A: − 2.72 ± 0.16

Q: What about the “SUVmax Blood pool, range” value (healthy volunteers) of the same compound?
A: 0.6~1.4

Q: What about the “SUVmax Bone marrow, range” value (healthy volunteers) of the same compound?
A: 0.5~1.3

Q: And the “SUVmax Kidneys, range” value (healthy volunteers)?
A: 11.2~17.8

Q: What about the “SUVmax Large bowel, range” value (healthy volunteers) of the same compound?
A: 1.6~3.7

Q: And the “SUVmax Lungs, range” value (healthy volunteers)?
A: 0.5~1.3

Q: What about the “SUVmax Palatine tonsil, range” value (healthy volunteers) of the same compound?
A: 1.2~4.1

Q: What about the “SUVmax Parotid gland, range” value (healthy volunteers) of the same compound?
A: 1.9~5.4

Q: And the “SUVmax Pituitary gland, range” value (healthy volunteers)?
A: 2.4~7.9

Q: And the “SUVmax Small bowel, range” value (healthy volunteers)?
A: 2.2~4.9

Q: What about the “SUVmax Spleen, range” value (healthy volunteers) of the same compound?
A: 20.1~33.5

Q: What about the “SUVmax Stomach, range” value (healthy volunteers) of the same compound?
A: 3.1~8.3

Q: And the “SUVmax Submandibular, range” value (healthy volunteers)?
A: 1.7~5.7

Q: What about the “SUVmax Thymus, range” value (healthy volunteers) of the same compound?
A: 0.7~1.5

Q: What about the “SUVmax kidneys, single value” (healthy volunteers) of the same compound?
A: 17.8

Q: What about the “SUVmax lung tissue, single value” (healthy volunteers) of the same compound?
A: 1.3

Q: And the “SUVmax pituitary gland, single value” (healthy volunteers)?
A: 7.9

Q: And the “SUVmax spleen, single value” (healthy volunteers)?
A: 33.5

Q: What about the “SUVmax stomach wall, single value” (healthy volunteers) of the same compound?
A: 8.3

Q: And the “radioactivity in the gallbladder” value (healthy volunteers)?
A: No radioactivity was seen

Q: What about the “uptake in the brain” value (healthy volunteers) of the same compound?
A: not taken up in the brain

Q: And the SUV (clinical; both sexes, 1.9 MBq/kg, SUVmax Adrenals, average)?
A: 15.2 SUV

Q: What about the SUV (clinical; both sexes, 1.9 MBq/kg, SUVmax Blood pool, average) of the same compound?
A: 0.9 SUV

Q: And the SUV (clinical; both sexes, 1.9 MBq/kg, SUVmax Bone marrow, average)?
A: 0.8 SUV

Q: What about the SUV (clinical; both sexes, 1.9 MBq/kg, SUVmax Kidneys, average) of the same compound?
A: 14.5 SUV

Q: And the SUV (clinical; both sexes, 1.9 MBq/kg, SUVmax Large bowel, average)?
A: 2.2 SUV

Q: What about the SUV (clinical; both sexes, 1.9 MBq/kg, SUVmax Liver, average) of the same compound?
A: 10.1 SUV

Q: And the SUV (clinical; both sexes, 1.9 MBq/kg, SUVmax Lungs, average)?
A: 0.8 SUV

Q: What about the SUV (clinical; both sexes, 1.9 MBq/kg, SUVmax Lymph nodes, average) of the same compound?
A: 1.1 SUV

Q: And the SUV (clinical; both sexes, 1.9 MBq/kg, SUVmax Palatine tonsil, average)?
A: 2.6 SUV

Q: And the SUV (clinical; both sexes, 1.9 MBq/kg, SUVmax Pancreas, average)?
A: 6.2 SUV

Q: And the SUV (clinical; both sexes, 1.9 MBq/kg, SUVmax Small bowel, average)?
A: 3.4 SUV

Q: What about the SUV (clinical; both sexes, 1.9 MBq/kg, SUVmax Spleen, average) of the same compound?
A: 26.9 SUV

Q: And the SUV (clinical; both sexes, 1.9 MBq/kg, SUVmax Stomach, average)?
A: 6.1 SUV

Q: What about the SUV (clinical; both sexes, 1.9 MBq/kg, SUVmax Submandibular, average) of the same compound?
A: 3.4 SUV

Q: What about the SUV (clinical; both sexes, 1.9 MBq/kg, SUVmax Thymus, average) of the same compound?
A: 1.2 SUV

Q: What about the SUV (clinical; both sexes, iv, 1.9 MBq/kg, SUVmax Breast, average) of the same compound?
A: 0.6 SUV

Q: What about the SUV (clinical; iv, 2.52 mCi, SUVmax kidney, single volunteer) of the same compound?
A: 13.9 SUV

Q: What about the SUV (clinical; iv, 2.52 mCi, SUVmax liver, single volunteer) of the same compound?
A: 9.4 SUV

Q: What about the SUV (clinical; iv, 2.52 mCi, SUVmax pituitary, single volunteer) of the same compound?
A: 7.74 SUV

Q: And the SUV (clinical; iv, 2.52 mCi, SUVmax spleen, single volunteer)?
A: 25.5 SUV

Q: And the SUV (clinical; iv, 2.8 mCi, SUVmax liver, single volunteer)?
A: 7.8 SUV

Q: What about the SUV (clinical; iv, 2.8 mCi, SUVmax spleen, single volunteer) of the same compound?
A: 16.3 SUV

Q: What about the fraction unbound [6] of the same compound?
A: 0.694
